The target in the experiment is T1, Vascular Endothelial Growth Factor (VEGF), His-tagged, refolded dimer (UniProt P15692-4 37-135).
T1 sequence (looked up): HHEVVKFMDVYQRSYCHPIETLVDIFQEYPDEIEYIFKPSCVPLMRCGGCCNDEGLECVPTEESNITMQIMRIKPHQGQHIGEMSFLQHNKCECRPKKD

B1: Flt-1 domain 2 fused to the N-terminal half of firefly luciferase (residues 2-416) (receptor, UniProt P17948 129-229, looked up, not shown: small tags and cut ends)
chain: SDTGRPFVEMYSEIPEIIHMTEGRELVIPCRVTSPNITVTLKKFPLDTLIPDGKRIIWDSRKGFIISNATYKEIGLLTCEATVNGHLYKTNYLTHRQTNTIEDAKNIKKGPAPFYPLEDGTAGEQLHKAMKRYALVPGTIAFTDAHIEVNITYAEYFEMSVRLAEAMKRYGLNTNHRIVVCSENSLQFFMPVLGALFIGVAVAPANDIYNERELLNSMNISQPTVVFVSKKGLQKILNVQKKLPIIQKIIIMDSKTDYQGFQSMYTFVTSHLPPGFNEYDFVPESFDRDKTIALIMNSSGSTGLPKGVALPHRTACVRFSHARDPIFGNQIIPDTAILSVVPFHHGFGMFTTLGYLICGFRVVLMYRFEEELFLRSLQDYKIQSALLVPTLFSFFAKSTLIDKYDLSNLHEIASGGAPLSKEVGEAVAKRFHLPGIRQGYGLTETTSAILITPEGDDKPGAVGKVVPFFEAKVVDLDTGKTLGVNQRGELCVRGPMIMSGYVNNPEATNALIDKDG
B1: the “fold increase in luminescence” value is 15 fold.

Source of the values: patent US20090170069A1 (ARIZONA BOARD OF REGENTS ON BEHALF OF THE UNIVERSITY OF …, published 2009).
